Legend:
[1] = molecular target: GLA cross-linked soluble BG505 SOSIP trimer (GLA-SOSIP trimer) (HIV-1 BG505); assay: ELISA; capture ELISA: plates coated with 4 ug/mL mAb 2G12, SOSIP or GLA-SOSIP trimer (0.2 ug/mL) captured, titration series of biotinylated mAbs or ligand; binding index = AUC on GLA-SOSIP trimer / AUC on SOSIP trimer
[2] = molecular target: GLA cross-linked soluble BG505 SOSIP trimer (GLA-SOSIP trimer) (HIV-1 BG505); assay: SPR; ProteOn XPR36, GLC chip with human antibody capture kit; 2G12 captured, then about 600 RU of trimer; dilution series of Fab passed over for 180 s, 600 s buffer; HBS-EP+ pH 7.4 with 1 mg/mL BSA; binding index = signal ratio GLA-SOSIP trimer / SOSIP trimer

Row | Substance | fold loss of binding against SOSIP trimer (ELISA binding index) [1] | fold loss of binding against SOSIP trimer (SPR binding index) [2]
1 | PGT145 (mAb) (antibody) | 3.3 fold | –
2 | PGT145 Fab | – | 5.3 fold
